Source: patent US20100150879A1 (published 2010)
No end group written: not given here.

Tests used:
β-catenin, endogenous [1] = molecular target: T1, β-catenin, endogenous (human, UniProt P35222 2-781); assay: interaction assay in extracts of ECs transfected with LPP3 constructs (method not spelled out)
T1 construct: Endogenous protein from cell extracts; also called beta-catenin
T1 sequence (looked up): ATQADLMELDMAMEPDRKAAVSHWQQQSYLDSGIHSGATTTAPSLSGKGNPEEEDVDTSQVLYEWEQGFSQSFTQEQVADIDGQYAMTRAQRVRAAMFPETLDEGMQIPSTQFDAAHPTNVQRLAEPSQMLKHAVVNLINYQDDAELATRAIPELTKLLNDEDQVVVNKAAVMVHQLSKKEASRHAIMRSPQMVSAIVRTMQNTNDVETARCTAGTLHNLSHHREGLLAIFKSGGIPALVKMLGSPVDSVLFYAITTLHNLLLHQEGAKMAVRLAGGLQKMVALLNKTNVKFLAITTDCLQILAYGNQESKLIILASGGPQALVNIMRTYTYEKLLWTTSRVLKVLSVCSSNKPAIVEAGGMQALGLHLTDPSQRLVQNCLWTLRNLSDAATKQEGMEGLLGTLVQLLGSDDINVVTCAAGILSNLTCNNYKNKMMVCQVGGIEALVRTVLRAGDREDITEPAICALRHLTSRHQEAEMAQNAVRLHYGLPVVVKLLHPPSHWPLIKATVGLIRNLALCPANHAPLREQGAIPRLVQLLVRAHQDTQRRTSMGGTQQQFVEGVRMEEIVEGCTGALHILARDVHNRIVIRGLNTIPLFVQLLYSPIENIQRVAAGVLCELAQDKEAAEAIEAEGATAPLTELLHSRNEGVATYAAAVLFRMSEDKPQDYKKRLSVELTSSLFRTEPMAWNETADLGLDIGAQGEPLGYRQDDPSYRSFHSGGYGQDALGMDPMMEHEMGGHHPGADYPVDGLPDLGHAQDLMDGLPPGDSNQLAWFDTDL

[2] = molecular target: T2, VE-cadherin, endogenous in hdMVEC (human, UniProt P33151 48-784); assay: far western, GST-LPP3-C-cyto as bait on blotted immunoprecipitates from hdMVEC
T2 construct: Endogenous protein from confluent EC extracts
T2 sequence (looked up): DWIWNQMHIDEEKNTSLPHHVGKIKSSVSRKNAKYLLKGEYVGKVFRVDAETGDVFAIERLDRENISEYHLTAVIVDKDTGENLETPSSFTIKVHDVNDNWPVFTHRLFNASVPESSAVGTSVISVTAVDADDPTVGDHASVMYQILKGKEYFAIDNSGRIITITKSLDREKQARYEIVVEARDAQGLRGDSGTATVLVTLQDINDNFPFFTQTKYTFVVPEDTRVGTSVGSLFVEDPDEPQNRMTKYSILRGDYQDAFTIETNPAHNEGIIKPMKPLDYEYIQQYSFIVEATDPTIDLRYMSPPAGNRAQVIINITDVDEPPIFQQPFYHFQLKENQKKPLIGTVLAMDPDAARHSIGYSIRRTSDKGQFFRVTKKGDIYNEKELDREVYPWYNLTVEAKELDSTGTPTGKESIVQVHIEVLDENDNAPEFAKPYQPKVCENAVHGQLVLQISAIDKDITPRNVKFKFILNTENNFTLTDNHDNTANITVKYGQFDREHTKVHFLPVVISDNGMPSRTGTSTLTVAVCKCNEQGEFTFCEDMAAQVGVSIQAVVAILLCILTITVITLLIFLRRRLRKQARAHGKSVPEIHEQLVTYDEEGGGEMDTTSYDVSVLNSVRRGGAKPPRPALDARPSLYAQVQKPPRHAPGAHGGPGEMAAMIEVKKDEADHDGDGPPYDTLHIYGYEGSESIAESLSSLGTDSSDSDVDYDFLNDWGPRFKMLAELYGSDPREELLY

β-catenin, endogenous [3] = molecular target: T1, β-catenin, endogenous; assay: as above
[4] = molecular target: T3, γ-catenin (plakoglobin), endogenous (human, UniProt P14923 1-745); assay: as above
T3 construct: Endogenous protein from cell extracts; also called gamma-catenin
T3 sequence (looked up): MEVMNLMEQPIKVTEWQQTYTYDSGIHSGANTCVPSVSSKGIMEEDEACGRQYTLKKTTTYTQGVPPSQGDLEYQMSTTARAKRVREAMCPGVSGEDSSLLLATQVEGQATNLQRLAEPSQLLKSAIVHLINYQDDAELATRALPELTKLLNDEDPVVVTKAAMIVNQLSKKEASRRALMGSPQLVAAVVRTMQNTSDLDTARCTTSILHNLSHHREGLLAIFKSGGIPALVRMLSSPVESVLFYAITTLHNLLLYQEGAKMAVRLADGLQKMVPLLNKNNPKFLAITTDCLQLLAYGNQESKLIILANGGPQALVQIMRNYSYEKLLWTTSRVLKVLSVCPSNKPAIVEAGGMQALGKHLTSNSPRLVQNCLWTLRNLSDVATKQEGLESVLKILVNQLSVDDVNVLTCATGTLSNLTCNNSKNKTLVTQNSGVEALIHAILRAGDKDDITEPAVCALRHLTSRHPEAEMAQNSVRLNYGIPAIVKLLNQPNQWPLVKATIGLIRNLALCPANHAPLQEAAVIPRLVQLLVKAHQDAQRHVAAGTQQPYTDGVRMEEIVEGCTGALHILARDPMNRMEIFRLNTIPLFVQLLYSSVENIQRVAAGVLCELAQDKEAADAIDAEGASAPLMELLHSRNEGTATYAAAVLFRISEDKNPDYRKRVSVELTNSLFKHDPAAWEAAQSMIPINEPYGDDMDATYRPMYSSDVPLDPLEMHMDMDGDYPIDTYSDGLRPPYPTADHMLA

[5] = molecular target: T4, β1-integrin, endogenous in hdMVEC (human, UniProt P05556 21-798); assay: as above
T4 construct: Immunoprecipitated from hdMVEC extracts and blotted for far western analysis; also called beta1-integrin
T4 sequence (P05556 21-798): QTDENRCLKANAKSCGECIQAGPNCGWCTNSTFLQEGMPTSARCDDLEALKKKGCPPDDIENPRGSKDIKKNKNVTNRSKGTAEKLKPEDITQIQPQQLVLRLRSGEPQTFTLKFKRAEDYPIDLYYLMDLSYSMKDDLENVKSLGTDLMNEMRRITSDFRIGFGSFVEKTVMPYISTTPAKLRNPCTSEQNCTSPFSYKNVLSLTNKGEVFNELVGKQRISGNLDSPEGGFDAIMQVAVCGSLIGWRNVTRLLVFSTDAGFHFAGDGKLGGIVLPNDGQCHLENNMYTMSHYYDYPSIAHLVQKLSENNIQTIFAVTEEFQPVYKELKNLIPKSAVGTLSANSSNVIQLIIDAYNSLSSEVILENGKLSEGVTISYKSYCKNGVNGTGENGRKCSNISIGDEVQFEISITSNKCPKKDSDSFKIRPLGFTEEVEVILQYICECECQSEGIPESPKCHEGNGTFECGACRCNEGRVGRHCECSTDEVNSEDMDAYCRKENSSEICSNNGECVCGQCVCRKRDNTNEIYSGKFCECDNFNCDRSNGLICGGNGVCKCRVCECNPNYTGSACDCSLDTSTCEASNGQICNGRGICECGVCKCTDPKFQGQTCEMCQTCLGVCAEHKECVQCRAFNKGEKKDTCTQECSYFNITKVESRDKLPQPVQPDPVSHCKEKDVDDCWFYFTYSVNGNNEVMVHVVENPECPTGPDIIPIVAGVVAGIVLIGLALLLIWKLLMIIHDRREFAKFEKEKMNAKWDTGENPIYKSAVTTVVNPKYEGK

[6] = molecular target: T5, p120-catenin (p120ctn), endogenous (human, UniProt O60716 1-968, limits assumed); assay: GST pull-down
T5 construct: Endogenous protein from cell extracts of human cells (hdMVEC, HEK293)
T5 sequence (looked up): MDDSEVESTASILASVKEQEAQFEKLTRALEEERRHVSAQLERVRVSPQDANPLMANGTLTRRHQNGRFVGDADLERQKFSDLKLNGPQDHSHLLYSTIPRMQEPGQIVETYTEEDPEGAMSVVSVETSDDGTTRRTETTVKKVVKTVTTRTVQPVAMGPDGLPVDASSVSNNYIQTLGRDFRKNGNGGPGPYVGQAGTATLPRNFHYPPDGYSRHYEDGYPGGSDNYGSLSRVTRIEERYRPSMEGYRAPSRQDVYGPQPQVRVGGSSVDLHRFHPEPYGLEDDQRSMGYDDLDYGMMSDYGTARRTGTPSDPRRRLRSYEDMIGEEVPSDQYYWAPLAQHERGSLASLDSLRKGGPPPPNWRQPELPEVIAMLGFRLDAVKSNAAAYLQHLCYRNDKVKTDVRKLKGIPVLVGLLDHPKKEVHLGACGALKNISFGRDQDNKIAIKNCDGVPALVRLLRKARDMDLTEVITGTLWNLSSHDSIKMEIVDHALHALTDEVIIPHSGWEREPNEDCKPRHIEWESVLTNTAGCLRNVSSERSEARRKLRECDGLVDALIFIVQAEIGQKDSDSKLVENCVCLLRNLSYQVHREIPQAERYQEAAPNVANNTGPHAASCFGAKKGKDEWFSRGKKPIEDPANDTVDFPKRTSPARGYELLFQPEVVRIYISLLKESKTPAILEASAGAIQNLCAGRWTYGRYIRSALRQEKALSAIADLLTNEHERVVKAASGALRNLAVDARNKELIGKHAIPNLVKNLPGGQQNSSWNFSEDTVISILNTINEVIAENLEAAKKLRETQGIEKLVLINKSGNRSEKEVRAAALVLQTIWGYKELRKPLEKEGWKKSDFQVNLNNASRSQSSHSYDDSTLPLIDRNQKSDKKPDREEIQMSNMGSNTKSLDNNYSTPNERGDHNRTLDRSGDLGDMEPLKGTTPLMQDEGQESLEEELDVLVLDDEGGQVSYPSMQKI
Experimental: Pull-down assays were also carried out with GST-LPP3 fusion proteins. […] In these experiments, each of the membranes was probed for the presence of the GST-fusion protein.

β-catenin, endogenous [7] = molecular target: T1, β-catenin, endogenous; assay: co-immunoprecipitation from sub-confluent ECs transfected with FLAG-tagged PTEN
Experimental: Cell extracts were centrifuged at ˜21,000×g for 30 minutes at 4° C., pre-adsorbed, and immunoprecipitated using specific antibodies. Immune complexes were washed 4-5 times with lysis buffer or with cold immunoprecipitation wash buffer (50 mM HEPES, pH 7.5; 150 mM NaCl; 0.5% NP-40; 1 mM calcium chloride; 1 mM magnesium chloride). SEPHAROSE-bound immune complexes were boiled in 1× Lammeli reducing sample buffer and resolved by SDS-PAGE.
It was initially determined whether PTEN binds to β-catenin in sub-confluent ECs.

[8] = molecular target: T2, VE-cadherin, endogenous in hdMVEC; assay: co-immunoprecipitation from confluent EC extracts
Experimental: Biochemical Experiments. For immunoprecipitation experiments, cells were rinsed with cold phosphate buffered saline (PBS), pH 7.4 and solubilized with complete cell lysis buffer (50 mM HEPES, pH 7.5; 150 mM NaCl; 1% TRITON X-100; 1 mM calcium chloride; 1 mM magnesium chloride; 1 mM sodium orthovanadate; 25 mM sodium fluoride; 1 mM sodium pyrosphosphate; 1 mM phenylmethylsulfonyl fluoride (PMSF); 10 μg/ml aprotinin; 10 μg/ml leupeptin; 1 μg/ml pepstatin-A) or with modified RIPA buffer (20 mM Tris, pH 7.5; 0.1% SDS; 0.25% sodium deoxycholate; 1% TRITON X-100; 150 mM sodium chloride; 1 mM sodium pyrosphosphate; 25 mM sodium fluoride; 1 mM sodium orthovanadate; 5 mM magnesium chloride; 1 mM calcium chloride; 1 μg/ml pepstatin; 1 mM phenylmethylsulfonyl fluoride; 1 μg/ml leupeptin) at 4° C. for 30 minutes. Cell extracts were centrifuged at ˜21,000×g for 30 minutes at 4° C., pre-adsorbed, and immunoprecipitated using specific antibodies. Immune complexes were washed 4-5 times with lysis buffer or with cold immunoprecipitation wash buffer (50 mM HEPES, pH 7.5; 150 mM NaCl; 0.5% NP-40; 1 mM calcium chloride; 1 mM magnesium chloride). SEPHAROSE-bound immune complexes were boiled in 1× Lammeli reducing sample buffer and resolved by SDS-PAGE. […]

β-catenin, endogenous [9] = molecular target: T1, β-catenin, endogenous; assay: immunoprecipitation and western blot, HEK293 cells expressing HA-LPP3
Experimental: (§1) For immunoprecipitation experiments, cells were rinsed with cold phosphate buffered saline (PBS), pH 7.4 and solubilized with complete cell lysis buffer (50 mM HEPES, pH 7.5; 150 mM NaCl; 1% TRITON X-100; 1 mM calcium chloride; 1 mM magnesium chloride; 1 mM sodium orthovanadate; 25 mM sodium fluoride; 1 mM sodium pyrosphosphate; 1 mM phenylmethylsulfonyl fluoride (PMSF); 10 μg/ml aprotinin; 10 μg/ml leupeptin; 1 μg/ml pepstatin-A) or with modified RIPA buffer (20 mM Tris, pH 7.5; 0.1% SDS; 0.25% sodium deoxycholate; 1% TRITON X-100; 150 mM sodium chloride; 1 mM sodium pyrosphosphate; 25 mM sodium fluoride; 1 mM sodium orthovanadate; 5 mM magnesium chloride; 1 mM calcium chloride; 1 μg/ml pepstatin; 1 mM phenylmethylsulfonyl fluoride; 1 μg/ml leupeptin) at 4° C. for 30 minutes. Cell extracts were centrifuged at ˜21,000×g for 30 minutes at 4° C., pre-adsorbed, and immunoprecipitated using specific antibodies. Immune complexes were washed 4-5 times with lysis buffer or with cold immunoprecipitation wash buffer (50 mM HEPES, pH 7.5; 150 mM NaCl; 0.5% NP-40; 1 mM calcium chloride; 1 mM magnesium chloride). SEPHAROSE-bound immune complexes were boiled in 1× Lammeli reducing sample buffer and resolved by SDS-PAGE.

[10] = molecular target: T3, γ-catenin (plakoglobin), endogenous; assay: as above
Experimental: as §1

B1: Lymphoid Enhancer Binding Factor 1 (LEF-1), endogenous in hdMVEC (other, human, UniProt Q9UJU2 1-399, looked up)
chain: MPQLSGGGGGGGGDPELCATDEMIPFKDEGDPQKEKIFAEISHPEEEGDLADIKSSLVNESEIIPASNGHEVARQAQTSQEPYHDKAREHPDDGKHPDGGLYNKGPSYSSYSGYIMMPNMNNDPYMSNGSLSPPIPRTSNKVPVVQPSHAVHPLTPLITYSDEHFSPGSHPSHIPSDVNSKQGMSRHPPAPDIPTFYPLSPGGVGQITPPLGWQGQPVYPITGGFRQPYPSSLSVDTSMSRFSHHMIPGPPGPHTTGIPHPAIVTPQVKQEHPHTDSDLMHVKPQHEQRKEQEPKRPHIKKPLNAFMLYMKEMRANVVAECTLKESAAINQILGRRWHALSREEQAKYYELARKERQLHMQLYPGWSARDNYGKKKKRKREKLQESASGTGPRMTAAYI
notes: Endogenous protein from EC extracts
binding result (β-catenin, endogenous [1]): binds

B2: GST-LPP3-C-cyto fusion protein (GST fused to the C-terminal cytoplasmic domain of LPP3) (other)
chain: SDLFKTKMTLSLPAPAIRKEILSPVDIIDRNNHHNMM
modifications: also: fused to glutathione-S-transferase (GST), linker not given here
notes: Expressed in E. coli; ran at 32 kDa; also called GST-C-cyto; GST-CC; not shown: glutathione-S-transferase (GST)
binding result [2]: no binding (tested: 2.0 µg/ml)
binding result (β-catenin, endogenous [3]): no binding (tested: 2.0 µg/ml)
binding result [4]: no binding (tested: 2.0 µg/ml)
binding result [5]: no binding (tested: 2.0 µg/ml)

B3: GST-N-cyto fusion protein (GST fused to the N-terminal cytoplasmic domain of LPP3) (other)
chain: QNYKYDKAIVPESKNGGSPALNNNPRRSGSK
notes: Expressed in E. coli; not shown: glutathione-S-transferase (GST)
binding result [6]: no binding

B4: FLAG-tagged wild-type PTEN (enzyme)
chain: not shown
notes: Gift construct, transfected into sub-confluent ECs; also called WT-PTEN; not shown: FLAG tag
binding result (β-catenin, endogenous [7]): no binding

B5: Lipid Phosphate Phosphatase-3 (LPP3), endogenous in human dermal microvascular endothelial cells (enzyme, UniProt O14495 1-311, looked up)
chain: MQNYKYDKAIVPESKNGGSPALNNNPRRSGSKRVLLICLDLFCLFMAGLPFLIIETSTIKPYHRGFYCNDESIKYPLKTGETINDAVLCAVGIVIAILAIITGEFYRIYYLKKSRSTIQNPYVAALYKQVGCFLFGCAISQSFTDIAKVSIGRLRPHFLSVCNPDFSQINCSEGYIQNYRCRGDDSKVQEARKSFFSGHASFSMYTMLYLVLYLQARFTWRGARLLRPLLQFTLIMMAFYTGLSRVSDHKHHPSDVLAGFAQGALVACCIVFFVSDLFKTKTTLSLPAPAIRKEILSPVDIIDRNNHHNMM
notes: Endogenous protein immunoprecipitated from hdMVEC lysates; also called phosphatidic acid phosphatase-2b; PAP2b
binding result [8]: no binding

B6: HA-tagged human wild-type LPP3 (pLNCX2-HA-WT-hLPP3) (enzyme)
chain: YPYDVPDYAYPYDVPDYAYPYDVPDYAMQNYKYDKAIVPESKNGGSPALNNNPRRSGSKRVLLICLDLFCLFMAGLPFLIIETSTIKPYHRGFYCNDESIKYPLKTGETINDAVLCAVGIVIAILAIITGEFYRIYYLKKSRSTIQNPYVAALYKQVGCFLFGCAISQSFTDIAKVSIGRLRPHFLSVCNPDFSQINCSEGYIQNYRCRGDDSKVQEARKSFFSGHASFSMYTMLYLVLYLQARFTWRGARLLRPLLQFTLIMMAFYTGLSRVSDHKHHPSDVLAGFAQGALVACCIVFFVSDLFKTKTTLSLPAPAIRKEILSPVDIIDRNNHHNMM
notes: whole, on cells; Three copies of the HA tag are fused in-frame at the N-terminus; also called HA-LPP3
binding result (β-catenin, endogenous [9]): no binding
binding result [10]: no binding
